In patent US20250236667A1, “ANTIBODIES TO MUTANT CALRETICULIN AND USES THEREOF” (CENTRAL ADELAIDE LOCAL HEALTH NETWORK INC, priority 2021, published 2025):

How the values were obtained:
[1] = molecular target: T1, thrombopoietin receptor (TpoR) (UniProt P40238 26-635, limits assumed); test: flow cytometry on TF-1 TpoR cells (TpoR with endogenous wild type CALR)
T1 construct: whole, on cells; It was immunoprecipitated with anti-FLAG beads, so the expressed TpoR evidently carries a FLAG tag; The construct and the position of the tag are not described; also called TPO receptor
T1 sequence (looked up): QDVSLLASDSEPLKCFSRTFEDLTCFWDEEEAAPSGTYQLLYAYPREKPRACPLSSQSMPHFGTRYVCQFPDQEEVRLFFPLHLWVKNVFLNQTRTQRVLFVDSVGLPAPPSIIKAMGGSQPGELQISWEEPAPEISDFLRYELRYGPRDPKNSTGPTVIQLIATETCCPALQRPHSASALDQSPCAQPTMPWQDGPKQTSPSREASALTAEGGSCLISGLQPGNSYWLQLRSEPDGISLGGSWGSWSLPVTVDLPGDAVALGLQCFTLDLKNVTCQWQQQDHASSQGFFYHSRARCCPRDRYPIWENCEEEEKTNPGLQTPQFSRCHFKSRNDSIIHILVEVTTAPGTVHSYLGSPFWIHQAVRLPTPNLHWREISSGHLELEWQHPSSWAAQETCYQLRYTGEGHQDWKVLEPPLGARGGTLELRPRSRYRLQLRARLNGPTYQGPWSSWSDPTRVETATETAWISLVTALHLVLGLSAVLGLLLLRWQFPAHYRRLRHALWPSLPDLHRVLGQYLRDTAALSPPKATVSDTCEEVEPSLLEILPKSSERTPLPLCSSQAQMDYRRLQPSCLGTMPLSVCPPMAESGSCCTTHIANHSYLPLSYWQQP

[2] = molecular target: T2, wild type calreticulin (CALR) (human, UniProt P27797 18-417); test: Western blot of TF-1 cell extracts (hybridoma clone screen)
T2 construct: also called CALR^WT; endogenous wild type CALR
T2 sequence (looked up): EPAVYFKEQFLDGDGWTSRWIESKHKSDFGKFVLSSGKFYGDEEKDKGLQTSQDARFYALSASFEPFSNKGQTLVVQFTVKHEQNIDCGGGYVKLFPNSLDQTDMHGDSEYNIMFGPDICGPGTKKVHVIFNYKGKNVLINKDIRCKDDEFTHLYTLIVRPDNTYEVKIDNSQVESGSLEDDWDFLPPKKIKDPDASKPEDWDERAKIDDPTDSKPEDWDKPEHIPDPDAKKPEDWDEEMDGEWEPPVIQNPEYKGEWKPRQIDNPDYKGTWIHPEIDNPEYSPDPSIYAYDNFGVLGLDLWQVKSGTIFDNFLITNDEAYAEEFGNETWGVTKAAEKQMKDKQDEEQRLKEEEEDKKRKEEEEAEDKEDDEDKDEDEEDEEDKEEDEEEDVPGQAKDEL
Procedure: (§1) B. Replicate Scatchard analyses of 4D7 using I¹²⁵-labelled and unlabelled 4D7 bound to full-length peptide (n=3). C. […] Cells were cultured in the presence or absence of 10 ng/ml TPO (n=3). D. Paracrine CALR-mutant protein is not sufficient to maintain TPO sensitive cells in culture. TF1 TpoR and TF-1 TpoR CALR^del61 cells were seeded at the same density and cultured in the presence or absence of TPO. Cells were separated by semi-permeable membrane in a horizontal co-culture system. Cell populations on either side of the membrane were counted every 24 hours over 4 days in triplicate and representative images were taken on day 4. Exogenous CALR secreted by TF-1 TpoR CALR^del61 was unable to assist growth of factor dependent TF-1 TopR cells (n=3). E. Histogram overlays showing fluorescence intensity of unstained and PE conjugated IgG2a isotype control in TF-1, TF-1 TpoR and TF-1 TpoR CALR^del61 compared to 4D7 conjugated to PE.
For immunoblotting of total lysates, cells were lysed in NP40 buffer containing 150 mM NaCl, 50 mM Tris pH 7.6, 1% NP-40, supplemented with protease inhibitors (Complete, Roche) and phosphatase inhibitor cocktails, and boiled for 5 minutes after addition of sample buffer (60 mM Tris pH 6.8, 5% glycerol, 1% SDS, 2% β-mercaptoethanol, 0.02% bromophenol blue) before SDS gel electrophoresis followed by Western blotting (Tvorogov et al, 2010). […]

[3] = molecular target: T3, full-length 30 amino acid CALR mutant neoepitope peptide (peptide used for immunisation) (human); test: 125I-Scatchard analysis, saturation binding of 125I-4D7 to plate-coated peptide
T3 construct: also called full-length peptide
T3 peptide: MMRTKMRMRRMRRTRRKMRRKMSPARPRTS
Procedure: 4D7 was radio-iodinated with ¹²⁵I (Perkin-Elmer) using Pierce Pre-Coated Iodination tubes (Thermo Scientific) with an estimated specific activity of 7733cpm/ng. For saturation binding assays, plates were coated overnight at 4° C. with full-length neoepitope CALR peptide (2 μg/mL) or control scrambled peptide (2 μg/mL). Wells were washed 3 times with phosphate buffered saline+0.05% Tween20, blocked with 5% bovine serum albumin for 1 hour followed by further washing. ¹²⁵I-4D7 was added at concentrations ranging from 2 pM to 2.5 nM in triplicate and incubated at room temperature for 2 hours. After washing, 1M HCl was added for 30 minutes to elute bound antibody. 200 μL aliquots from each well were counted on a PerkinElmer 2470 Wizard2 Automatic Gamma Counter. Dissociation constants were calculated using the EBDA and LIGAND programs.

[4] = molecular target: T3, full-length 30 amino acid CALR mutant …; test: Scatchard analysis, 125I-labelled and unlabelled 4D7 on plate-bound full-length peptide; left plot of three replicates, R2= 0.9794
Procedure: as §1, with “A. Western blot screening of various mutant CALR antibody clones produced from hybridomas in TF-1 TpoR and TF-1 TpoR CALR^del61. Varying levels of intensity can be observed, compared to commercial Dianova monoclonal mutant CALR antibody. 4D7 is able to detect mutant CALR protein in CALR^del61 cells but not in CALR wild type TF-1 cells. B.” for “B.”, “Cells were separated by semi-permeable membrane in a horizontal co-culture system.” left out, “Exogenous CALR secreted by TF-1 TpoR CALR^del61 was unable to assist growth of factor dependent TF-1 TopR cells (n=3).” left out
(§2) 4D7 was radio-iodinated with ¹²⁵I (Perkin-Elmer) using Pierce Pre-Coated Iodination tubes (Thermo Scientific) with an estimated specific activity of 7733cpm/ng. […] 200 μL aliquots from each well were counted on a PerkinElmer 2470 Wizard2 Automatic Gamma Counter. Dissociation constants were calculated using the EBDA and LIGAND programs.

[5] = molecular target: T3, full-length 30 amino acid CALR mutant …; test: Scatchard analysis, 125I-labelled and unlabelled 4D7 on plate-bound full-length peptide; right plot of three replicates, R2= 0.994
Procedure: as §1, with “A. Western blot screening of various mutant CALR antibody clones produced from hybridomas in TF-1 TpoR and TF-1 TpoR CALR^del61. Varying levels of intensity can be observed, compared to commercial Dianova monoclonal mutant CALR antibody. 4D7 is able to detect mutant CALR protein in CALR^del61 cells but not in CALR wild type TF-1 cells. B.” for “B.”, “Cells were separated by semi-permeable membrane in a horizontal co-culture system.” left out, “Exogenous CALR secreted by TF-1 TpoR CALR^del61 was unable to assist growth of factor dependent TF-1 TopR cells (n=3).” left out
as §2

[6] = molecular target: T3, full-length 30 amino acid CALR mutant …; test: Scatchard analysis, 125I-labelled and unlabelled 4D7 on plate-bound full-length peptide; middle plot of three replicates, R2= 0.9926
Procedure: as §1, with “A. Western blot screening of various mutant CALR antibody clones produced from hybridomas in TF-1 TpoR and TF-1 TpoR CALR^del61. Varying levels of intensity can be observed, compared to commercial Dianova monoclonal mutant CALR antibody. 4D7 is able to detect mutant CALR protein in CALR^del61 cells but not in CALR wild type TF-1 cells. B.” for “B.”, “Cells were separated by semi-permeable membrane in a horizontal co-culture system.” left out, “Exogenous CALR secreted by TF-1 TpoR CALR^del61 was unable to assist growth of factor dependent TF-1 TopR cells (n=3).” left out
as §2

[7] = molecular target: T3, full-length 30 amino acid CALR mutant …; test: ELISA on peptide
[8] = molecular target: T2, wild type calreticulin (CALR); test: Western blot of cell extracts
mutant CALR protein = test: Western blot detection of mutant CALR by hybridoma clones; assay type: binding, human; details: cell extracts from TF-1 cells transduced with and without mutant CALR; data not shown
Procedure: (§3) Rats were immunised with a CALR mutant peptide “MMRTKMRMRRMRRT RRKMRRKMSPARPRTS” coupled to KLH, this peptide sequence is unique to CALR mutant. Serum from the immunised rats was screened by enzyme linked immunoassay, to verify a strong titre to the peptide immunogen, prior to performing the hybridoma fusion. Immunised rat spleen cells were harvested and a spleen single cell suspension was combined with Sp2/O myeloma cell line. The cell mixture was treated with polyethylene glycol plus DMEM prior to been plated in 96 well flat bottom plates. The expanding hybridomas were screened initially by ELISA and the positive clones were further verified by western blot, for reactivity to the expressed CALR mutant protein before subcloning the hybridomas for antibody production.
For immunoblotting of total lysates, cells were lysed in NP40 buffer containing 150 mM NaCl, 50 mM Tris pH 7.6, 1% NP-40, supplemented with protease inhibitors (Complete, Roche) and phosphatase inhibitor cocktails, and boiled for 5 minutes after addition of sample buffer (60 mM Tris pH 6.8, 5% glycerol, 1% SDS, 2% β-mercaptoethanol, 0.02% bromophenol blue) before SDS gel electrophoresis followed by Western blotting (Tvorogov et al, 2010). Primary antibodies against pERK (#9101), pSTAT5 (#9359), ERK (#4695), Actin (#4970), Caspase 3 (#14220), wildtype CALR (#12238) were purchased from Cell Signalling. Primary antibodies against pSTATI (#612233), pSTAT3 (#612357), STATI (#610186), STAT3 (#610190), STAT5 (#610192) and Anti-phosphotyrosine 4G10 (#610012) were purchased from BD Biosciences. Mutant CALR monoclonal antibody CAL2 was purchased from Dianova (Hamburg, Germany). Immunopreciptation of TpoR was performed in standard NP40 lysis buffer with additional 50 mM iodoacetamide to avoid any de novo disulfide bond formation post lysis. To reduce IgG background during immunoprecipitation anti-FLAG conjugated to magnetic beads (Sigma, #M8823) were used. For this same reason, anti-FLAG-HRP conjugated antibodies (Sigma, #A8592) were used in western blotting.

[9] = tested on: TF-1 TpoR CALR^del61 cells; test: Cell proliferation, trypan blue exclusion; assay type: cell-based, human; details: 5 or 20 μg/mL; FIG. 8
Procedure: […] Cells were seeded in triplicate and each well was counted in triplicate every 24 hours for 5 days using trypan blue exclusion.

[10] = tested on: 30 amino acid peptide corresponding to the C-terminal mutant CALR neoepitope sequence; test: ELISA binding to peptide; parameters: species or system human
Procedure: as §3

Row | Molecule | binding result [1] | binding result [2] | Kd [3] | Kd [4] | Kd [5] | Kd [6] | binding result [7] | binding result [8] | detecting mutant but not wild type CALR protein by Western blotting (mutant CALR protein) | proliferation of cytokine-independent TF1 TpoR/mutCALR cells [9] | binding to peptide by ELISA [10]
1 | 4D7 rat monoclonal IgG2a anti-mutant calreticulin antibody (antibody, V domains shown, also called clone 4D7; clone 4D7 mAb) VH: QVQLQQSGAELAKPGSSVKISCKASGYTFTNYDMSWIKQRPGQALEWIGAINPGNGVTDYNEKFRGKATLTVDKSSSTAFMQLSSLTPEDTAVYHCAREYRDNYGYFDYWGQGVMVTVSS VL: DIVLTQTPVSLSVTLGDQASISCRSSQSLEYSDGYTYLDWFLQKPGQSPQLLIYEVSSRFSGVPDRFIGRGSGTDFTLKISRVEPEDLGVYYCFQATHDPFTFGSGTKLEIK | no binding (tested: 4 µg/mL (FIG. 1D legend)) | no binding | 1.53 nM | 1.91 nM | 1.25 nM | 1.43 nM | – | – | – | – | –
2 | 9H11 rat monoclonal anti-mutant calreticulin antibody (antibody, V domains shown, also called rat anti-human mutCALR 9H11) VH: QVQLQQSGAELTKPGSSVKISCKASGYTFTTYDISWIKQRPGQALEWIGAIYPGGETTGYNEKFKDKATLTVDKSSNTAFMQLSSLTPEDTAVYYCARWGHTTGTRFDHWGQGVMVTVSS VL: DIVLTQTPVSLSVSLGDQASISCRSSQSLEYSDGYTYLEWYVQKPGQSPQLLIWEVSDRFSGVPDRFIGSGSGTDFTLKISRVEPEDLGVYYCFQATHDPPTFGGGTKLELK | – | – | – | – | – | – | binds | no binding | superior activity | inhibit proliferation | positive binding
